{
  "source": "patent US20200024322A1",
  "about": "(Eli Lilly, published 2020)",
  "key": {"human GLP-1 receptor": {"target": "T1, human GLP-1 receptor (human, UniProt P43220 24-463)", "T1 construct": "whole, on cells; Used as crude membranes of stably transfected HEK293 cells; also called hGLP1R; hGLP-1R", "test": "SPA, [125I]-GLP-1 displacement, hGLP-1R membranes"}, "human GIP receptor": {"target": "T2, human GIP receptor (human, UniProt P48546 22-466)", "T2 construct": "whole, on cells; Used as crude membranes of stably transfected CHO cells; also called hGIPR", "T2 sequence (looked up)": "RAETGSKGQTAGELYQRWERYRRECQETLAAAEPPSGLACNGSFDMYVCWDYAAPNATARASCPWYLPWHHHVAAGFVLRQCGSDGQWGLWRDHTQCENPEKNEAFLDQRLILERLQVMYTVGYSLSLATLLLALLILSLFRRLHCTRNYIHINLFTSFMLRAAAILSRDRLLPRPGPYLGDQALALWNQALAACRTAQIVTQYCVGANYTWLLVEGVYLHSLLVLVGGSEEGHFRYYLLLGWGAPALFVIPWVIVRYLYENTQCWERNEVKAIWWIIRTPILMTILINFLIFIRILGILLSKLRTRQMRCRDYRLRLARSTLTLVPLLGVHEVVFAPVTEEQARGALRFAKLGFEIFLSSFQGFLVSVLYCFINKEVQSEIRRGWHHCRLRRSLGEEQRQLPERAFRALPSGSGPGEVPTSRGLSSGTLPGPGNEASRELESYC", "test": "SPA, [125I]-GIP displacement, hGIPR membranes"}, "human glucagon receptor": {"target": "T3, human glucagon receptor (human, UniProt P47871 26-477)", "T3 construct": "whole, on cells; Used as crude membranes of stably transfected HEK293 cells; also called hGcgR; hGLcgR", "T3 sequence (P47871 26-477)": "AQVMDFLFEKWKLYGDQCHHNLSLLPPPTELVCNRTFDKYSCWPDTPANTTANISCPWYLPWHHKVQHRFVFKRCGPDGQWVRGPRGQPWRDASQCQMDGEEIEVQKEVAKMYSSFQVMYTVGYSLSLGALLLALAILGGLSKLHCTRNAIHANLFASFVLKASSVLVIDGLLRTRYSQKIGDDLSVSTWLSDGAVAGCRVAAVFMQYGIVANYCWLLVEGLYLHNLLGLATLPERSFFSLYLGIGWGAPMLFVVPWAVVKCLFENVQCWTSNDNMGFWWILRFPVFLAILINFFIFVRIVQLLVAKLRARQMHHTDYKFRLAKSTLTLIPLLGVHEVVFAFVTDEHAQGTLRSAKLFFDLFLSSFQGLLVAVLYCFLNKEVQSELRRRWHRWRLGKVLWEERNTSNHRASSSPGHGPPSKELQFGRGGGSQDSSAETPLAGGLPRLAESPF", "test": "SPA, [125I]-Gcg displacement, hGcgR membranes"}},
  "data": [
    {"binder": "YXEGTXTSDYSIXLDXKAQXEFIXYLIEGGPSSGAPPPS (Aib2; αMeF(2F)6; αMeL13; Orn16; K17((2-[2-(2-Amino-ethoxy)-ethoxy]-acetyl)2-(γ-Glu)-CO-(CH2)18-CO2H); Aib20; D-Glu24; C-terminal NH2)", "note": "[Example 3]", "values": [
      {"measurement": "Ki", "setting": "human GLP-1 receptor", "result": 2.23, "unit": "nM"},
      {"measurement": "Ki", "setting": "human GIP receptor", "result": 0.0458, "unit": "nM"},
      {"measurement": "Ki", "setting": "human glucagon receptor", "result": 242, "unit": "nM"}
    ]},
    {"binder": "YXEGTXTSDVSIXLDXKAQXEFIXXLIEGGPSSGAPPPS (not fully specified; Aib2; αMeF(2F)6; αMeL13; Orn16; K17((2-[2-(2-Amino-ethoxy)-ethoxy]-acetyl)2-(γ-Glu)-CO-(CH2)16-CO2H); Aib20; D-Glu24; αMeY25; C-terminal NH2)", "note": "[Example 5]", "values": [
      {"measurement": "Ki", "setting": "human GLP-1 receptor", "result": 0.902, "unit": "nM"},
      {"measurement": "Ki", "setting": "human GIP receptor", "result": 0.0611, "unit": "nM"},
      {"measurement": "Ki", "setting": "human glucagon receptor", "result": 519, "unit": "nM"}
    ]},
    {"binder": "YXEGTXTSDXSIXLDXKAQXEFIXXLIEGGPSSGAPPPS (not fully specified; Aib2; αMeF(2F)6; 4Pal10; αMeL13; Orn16; K17((2-[2-(2-Amino-ethoxy)-ethoxy]-acetyl)2-(γ-Glu)-CO-(CH2)16-CO2H); Aib20; D-Glu24; αMeY25; C-terminal NH2)", "note": "[Example 4]", "values": [
      {"measurement": "Ki", "setting": "human GLP-1 receptor", "result": 1.63, "unit": "nM"},
      {"measurement": "Ki", "setting": "human GIP receptor", "result": 0.0528, "unit": "nM"},
      {"measurement": "Ki", "setting": "human glucagon receptor", "result": 686, "unit": "nM"}
    ]},
    {"binder": "YXEGTFTSDYSIXLDKKAQXAFIEYLIEGG (Aib2; αMeL13; K17((2-[2-(2-Amino-ethoxy)-ethoxy]-acetyl)2-(γ-Glu)-CO-(CH2)18-CO2H); Aib20; C-terminal NH2)", "note": "[Example 62]", "values": [
      {"measurement": "Ki", "setting": "human GLP-1 receptor", "result": 2.03, "unit": "nM"},
      {"measurement": "Ki", "setting": "human GIP receptor", "result": 0.0545, "unit": "nM"},
      {"measurement": "Ki", "setting": "human glucagon receptor", "result": 168, "unit": "nM"}
    ]},
    {"binder": "YXEGTFTSDYSIXLDSKAQXAFIEYLIEGG (Aib2; αMeL13; K17((2-[2-(2-Amino-ethoxy)-ethoxy]-acetyl)2-(γ-Glu)-CO-(CH2)18-CO2H); Aib20; C-terminal NH2)", "note": "[Example 64]", "values": [
      {"measurement": "Ki", "setting": "human GLP-1 receptor", "result": 4.86, "unit": "nM"},
      {"measurement": "Ki", "setting": "human GIP receptor", "result": 0.0866, "unit": "nM"},
      {"measurement": "Ki", "setting": "human glucagon receptor", "result": 260, "unit": "nM"}
    ]},
    {"binder": "YXEGTFTSDYSIXLDTKAQXAFIEYLIEGG (Aib2; αMeL13; K17((2-[2-(2-Amino-ethoxy)-ethoxy]-acetyl)2-(γ-Glu)-CO-(CH2)18-CO2H); Aib20; C-terminal NH2)", "note": "[Example 65]", "values": [
      {"measurement": "Ki", "setting": "human GLP-1 receptor", "result": 4.53, "unit": "nM"},
      {"measurement": "Ki", "setting": "human GIP receptor", "result": 0.0643, "unit": "nM"},
      {"measurement": "Ki", "setting": "human glucagon receptor", "result": 194, "unit": "nM"}
    ]},
    {"binder": "YXEGTFTSDYSIXLDEKAQXAFIEYLIEGG (Aib2; αMeL13; K17((2-[2-(2-Amino-ethoxy)-ethoxy]-acetyl)2-(γ-Glu)-CO-(CH2)18-CO2H); Aib20; C-terminal NH2)", "note": "[Example 63]", "values": [
      {"measurement": "Ki", "setting": "human GLP-1 receptor", "result": 7.79, "unit": "nM"},
      {"measurement": "Ki", "setting": "human GIP receptor", "result": 0.141, "unit": "nM"},
      {"measurement": "Ki", "setting": "human glucagon receptor", "result": 273, "unit": "nM"}
    ]},
    {"binder": "YXEGTXTSDLSILLDKKAQXAFIEYLIEGGPSSGAPPPS (Aib2; αMeF6; K17((2-[2-(2-Amino-ethoxy)-ethoxy]-acetyl)2-(γ-Glu)-CO-(CH2)18-CO2H); Aib20; C-terminal NH2)", "note": "[Example 129]", "values": [
      {"measurement": "Ki", "setting": "human GLP-1 receptor", "result": 1, "unit": "nM"},
      {"measurement": "Ki", "setting": "human GIP receptor", "result": 0.0278, "unit": "nM"},
      {"measurement": "Ki", "setting": "human glucagon receptor", "result": 14.9, "unit": "nM"}
    ]},
    {"binder": "XXEGTFTSDYSILLDKKAQXAFIEYLIEGGPSSGAPPPS (D-Tyr1; Aib2; K17((2-[2-(2-Amino-ethoxy)-ethoxy]-acetyl)2-(γ-Glu)-CO-(CH2)18-CO2H); Aib20; C-terminal NH2)", "note": "[Example 78]", "values": [
      {"measurement": "Ki", "setting": "human GLP-1 receptor", "result": 3.94, "unit": "nM"},
      {"measurement": "Ki", "setting": "human GIP receptor", "result": 0.163, "unit": "nM"},
      {"measurement": "Ki", "setting": "human glucagon receptor", "result": 215, "unit": "nM"}
    ]},
    {"binder": "YXEGTXTSDYSIXLDEKAQXAFIEYLIEGGPSSGAPPPS (Aib2; αMeF6; αMeL13; K17((2-[2-(2-Amino-ethoxy)-ethoxy]-acetyl)2-(γ-Glu)-CO-(CH2)18-CO2H); Aib20; C-terminal NH2)", "note": "[Example 115]", "values": [
      {"measurement": "Ki", "setting": "human GLP-1 receptor", "result": 3.43, "unit": "nM"},
      {"measurement": "Ki", "setting": "human GIP receptor", "result": 0.0302, "unit": "nM"},
      {"measurement": "Ki", "setting": "human glucagon receptor", "result": 9.89, "unit": "nM"}
    ]},
    {"binder": "YXEGTFTSDYSILLDKKAQXAXIEYLIEGGPSSGAPPPS (Aib2; K17((2-[2-(2-Amino-ethoxy)-ethoxy]-acetyl)2-(γ-Glu)-CO-(CH2)18-CO2H); Aib20; αMeF22; C-terminal NH2)", "note": "[Example 67]", "values": [
      {"measurement": "Ki", "setting": "human GLP-1 receptor", "result": 10.2, "unit": "nM"},
      {"measurement": "Ki", "setting": "human GIP receptor", "result": 0.061, "unit": "nM"},
      {"measurement": "Ki", "setting": "human glucagon receptor", "result": 270, "unit": "nM"}
    ]},
    {"binder": "YXEGTFTSDYSIXLDKKAQXAXIEYLIEGGPSSGAPPPS (Aib2; αMeL13; K17((2-[2-(2-Amino-ethoxy)-ethoxy]-acetyl)2-(γ-Glu)-CO-(CH2)18-CO2H); Aib20; αMeF22; C-terminal NH2)", "note": "[Example 74]", "values": [
      {"measurement": "Ki", "setting": "human GLP-1 receptor", "result": 5.99, "unit": "nM"},
      {"measurement": "Ki", "setting": "human GIP receptor", "result": 0.0279, "unit": "nM"},
      {"measurement": "Ki", "setting": "human glucagon receptor", "result": 69.8, "unit": "nM"}
    ]},
    {"binder": "YXEGTFTSDYXILLDKKAQXAFIEYLIEGGPSSGAPPPS (Aib2; αMeS11; K17((2-[2-(2-Amino-ethoxy)-ethoxy]-acetyl)2-(γ-Glu)-CO-(CH2)18-CO2H); Aib20; C-terminal NH2)", "note": "[Example 68]", "values": [
      {"measurement": "Ki", "setting": "human GLP-1 receptor", "result": 1.58, "unit": "nM"},
      {"measurement": "Ki", "setting": "human GIP receptor", "result": 0.0243, "unit": "nM"},
      {"measurement": "Ki", "setting": "human glucagon receptor", "result": 99.2, "unit": "nM"}
    ]},
    {"binder": "YXEGTXTSDYSIXLDKKAQXAXIEYLIEGGPSSGAPPPS (Aib2; αMeF6 (printed aMeF); αMeL13; K17((2-[2-(2-Amino-ethoxy)-ethoxy]-acetyl)2-(γ-Glu)-CO-(CH2)18-CO2H); Aib20; αMeF22; C-terminal NH2)", "note": "[Example 76]", "values": [
      {"measurement": "Ki", "setting": "human GLP-1 receptor", "result": 2.64, "unit": "nM"},
      {"measurement": "Ki", "setting": "human GIP receptor", "result": 0.0659, "unit": "nM"},
      {"measurement": "Ki", "setting": "human glucagon receptor", "result": 14.4, "unit": "nM"}
    ]},
    {"binder": "YXEGTFTSDYXILLDKKAQXAFIEYLIEGGPSSGAPPPS (Aib2; D-Ser11; K17((2-[2-(2-Amino-ethoxy)-ethoxy]-acetyl)2-(γ-Glu)-CO-(CH2)18-CO2H); Aib20; C-terminal NH2)", "note": "[Example 81]", "values": [
      {"measurement": "Ki", "setting": "human GLP-1 receptor", "result": 2.88, "unit": "nM"},
      {"measurement": "Ki", "setting": "human GIP receptor", "result": 0.198, "unit": "nM"},
      {"measurement": "Ki", "setting": "human glucagon receptor", "result": 344, "unit": "nM"}
    ]},
    {"binder": "YXEGTFTSDYSILLDKKAQXAFIEYLIXGGPSSGAPPPS (Aib2; K17((2-[2-(2-Amino-ethoxy)-ethoxy]-acetyl)2-(γ-Glu)-CO-(CH2)18-CO2H); Aib20; D-Glu28; C-terminal NH2)", "note": "[Example 83]", "values": [
      {"measurement": "Ki", "setting": "human GLP-1 receptor", "result": 7.1, "unit": "nM"},
      {"measurement": "Ki", "setting": "human GIP receptor", "result": 0.142, "unit": "nM"},
      {"measurement": "Ki", "setting": "human glucagon receptor", "result": 320, "unit": "nM"}
    ]},
    {"binder": "YXEGTFTSDYSIXLDXKAQXAFIEYLIEGGPSSGAPPPS (Aib2; αMeL13; Aib16; K17((2-[2-(2-Amino-ethoxy)-ethoxy]-acetyl)2-(γ-Glu)-CO-(CH2)18-CO2H); Aib20; C-terminal NH2)", "note": "[Example 60]", "values": [
      {"measurement": "Ki", "setting": "human GLP-1 receptor", "result": 9.55, "unit": "nM"},
      {"measurement": "Ki", "setting": "human GIP receptor", "result": 0.0655, "unit": "nM"},
      {"measurement": "Ki", "setting": "human glucagon receptor", "result": 237, "unit": "nM"}
    ]}
  ]
}
